Assay: protease stability score; higher = more stable; yeast display proteolysis, trypsin and chymotrypsin;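 also: relative to predicted unfolded state with 0 unfolded-like and 1 meaning tenfold more protease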

Sequence | protease stability score
DESEHAAKHVSELFRELVDTGDEKFHEEFADPNVRLDYGDKHYHGREIQLRIFREWRIHHIEDKDVEVQGDKIFVDGRLDGTVDGRRQHYKIILIWRKVNGRWLSTQIRFH | 1.59
DESEKDSHMASLHIIELIETGDWRELRELLDPRTRLHIGDKDIHGREEALRNIIRVWHHMRIHRVHIRSIRLQGDYVRVEFEVDGTIDGKHHRIEVEFVAQKIDGRWHLKSEIYH | 1.12
DESEKHAEEFLRLLEESLLTGNWKFISELLDPRARTDYNGRDLHGRETMERWVKDFVRHIRIDHINNKTIDVQGDKVIIIGEVDGTINGRRERLEVHIFFLKVNGRWYLESTEFR | 1.27
DESEKIMEDATKEHVKSFETGDFHTLLRQLDPHVRNNVNGVELHGREDVIRVLRELMERFPNVRVHIERIEVIGDKVNIKVNWNFNGVIVDVNIIAAKINGRWVNREMEVR | 0.966
DESEKLEELIHERLRHLIETGDEDKLAKMADPNVRNRVGDFVHHGRERSHELLKWIFDHLGIDHLHIKHSSVIDGVVHFEIELRINGRTIRLHDHWFFINGRLDEISIHWE | 0.93
DESEKLVERLTEDFRKAFETGDEKRLYNLMDPNVRLDINGVEIIGRELISKDLAHDLRRFKNVKMEFRLREIRVIGNFAHIDGRDIINVDGVEKYHESNYIVHKIDGRWHIKEIIIH | 1.52
DESEKMFKEIWRLLIESHRTGDEDSLERLADPHARMDFNGVEHHGRRELVRILSEHYKRVDHIHLIIRDMDVQGNKVTMRGELVLEFNGRRQTHDVTIILSKVDGVWYLHSIIVR | 1.53
DESEKSAFRFFEEMTKVLSTGDEETFLKMLDPNTRLEVGDKERHGREDFIRLMRHLWEVLGADHVHIHVKDIKVVNGRADIDTDLIIYVNGKTIHRDTQIIVLKIDGRWVLTSMEVE | 2.02
DESEKYLKDAVEILIRVIRTGDEHTMKELLDPNVRLHAENHESHGRELLEWWTRRIDHVNDSKIEDMRTVGDYVELDMRLHTVFNGQTIDIKTTFIIIKVNGKWQLRSVHIH | 1.26
DESERDFRRALEIMHKVVETGNWEEAKRMFDPHVLLDVNGVLIHGREVIIKYVERIDHIRFHHDLKRIETQGDKIYADVHEDLDISINGKTIHIRTRVHIISQKYDGRWLNTEHKVE | 0.548
DESERDMETFVRITMDELVTGNEESIEEMLDPNVRLEVNGRQFHGREDATRIISEWIKILGINHRRLEEIRFVDGRAEVIVEIRVGDKRSELILISLKVNGQWRMERFEIRNE | 2.09
DESERIILHIANEFLHLYATGDEDRLRELADPHVRLDVDGQDVHGRELTQKWWKRFVEEIRIRDLHLKDYYIIGEKYHIEGHTRLHIGDKHVETEIRIHIVVVNGKIKSESFHLR | 0.541
DESERMVLELARLFLEDLLTGNEDLMSHLADPHAKNDINGVDLHGMEVISKHLSELRLRVLDITEERVQGDKVRIKVEVVIQYGDKWRETEVDLELYIVNGRLKSQIWTIR | 1.08
DESHEHIRFWAEIYIRIFETGDWDEMSRLLDPHYRLIQGDKHIVGRERALDHIDKEIKELRIHHIHIKDVKTQGDYVRIDGHVNYNVGDKILRFDFHIKLLVVDGKIKHSEERVR | 1.28
DESHELWRRNLELILQSRHTGDEFLTKELFDPRMRSNVNGVELHGMEEMLKFVSEIRIHVEHFRLHRIETQGDKIHIRAHEVINIEIGDYHVRLDTWVEMHDVKYNGRWFNTEVHIR | 0.979
DESHESLHKMLKVRYEALHTGDESMLNELLDPDARFNVDGRIHHGRERAVRYNERIPNLTTRDLKVHDWKVIGDKIHIDGRLEGHWNGKHHIINEEIIVQKINGKWLIEEVIVR | 0.109
DESHQLMLELLEELFHLLLTGNEETILRLADPNTRLQINGQETHGRESARHYWQRFLEHWRLKDYRIRSLYSQGDKAIIHTEVVLHYNGRDFRVTTEIRLWVFDGKIHEIIIIIN | 1.53
DESHRESKLANELLKLALHTGDEDLLRELLDPRMRLEIGDKEFIGRDIMVQAMHEFYRELGVKHTDLKIKRVEIQGNKVINEGILWFHVGDKEHWVSTEFQSVKVNGRWLLQVFSIK | 1.35
DESKDDSRRAVNLVVRTIQTGDWDLLIELLDPNVKIEINGQDLHGRETLFKTWLDEMRKLGVDRVHVELKHIEVQGEKVIVHVDVSVNGRDIKTEIIIHKVDGKWFIKSLHFK | 1.31
DESKEAAELFIKQVERSTKTGDERLFEEFIDPHMRLEIGEFDYHGREFLHITLRDLGMEIRTFIVKDIKVQGDKARIRVEEHIQVNGVEQRRQVKYVIDKFDGRWEIHSVHFD | 0.392
DESKESARSFEDLLQEVRRTGDERKLVNLIDPHVKININGKIFHGWEDLEREFHRIKNIRFHVERMRVVGDKIDVRGTLHVDGQTVDTEIDVYKIDGRWAIESLRIG | 1.43
DESKEVSEDALRIMIELIKTGDEHLLQRYIDPDVRVDVNGRHTHGWHWVVRQIFEEIKRVDHMRIHLDSERVFNGRVHLDVTIHVHINGVEIDIKITLTFHKFDGRWLFHHIKHK | 0.195
DESKRDVKMFHEIFLRAQSTGDEDELSHLADPNVRIHQGEFHNIGMEEFVKHIREMRVHVRDSHIERVEIQGDKLIVEVRLHMEIRYNGQRTERDVNLHLIIIKINGRWILHSIHIE | 1.02
DESMTEAKQILETLNKSLNTGDERLDKELFDPRAKLEFDGREIHGRELILTWLSEWRIEIKDFRIEDIEFQGNKVKMHTRIDMTVDFNGRRIKIDTTMHHDVIKVNGRWLIQRQIIP | 1.12
DESQEIAIEASKRLYNHLLTGDEDNLKRLLDPHVRIEIDGRDIHGMEEVTRLKREWRFDSIEIRVDSVRDVNGRLDVKGHMRYHVRIGDKSHDREVKMHLTAEKIDGRWHNKSIHFE | 1.26

Sequence | protease stability score
DESQHVAEKVYKHLLKYWVTGDEDSVSRLVDPHARLHFEGRDLHGRHLISQFRMEWRLDHVHVDDMQVQGDKMEVRGKLDTTIDGRRTNLNEHLRLEKIDGRWYIREIRIE | 1.25
DESQRDAHHASELVELVEKTGDWKMFEKLLDPHVRLQVGDKEFHGRHEAMRWIRETLERLGIDHREVRIEHIEFIGDKMIIHGEIILRFNGVTITHEEEFIVKKINGKWRMHEIRVR | 1.29
DESREIAHKFLEIWIDAFKTGDEDLNSELLDPNTRRDVGDFRIHGMELIVKIMSKELEKYKGITFRVKIRHSTWQGDKIHLIVDILIIIGDKEERIETHFILEKIDGRWITTHMQIR | 1.34
DESRESLEEALKIYIHDIKTGDEKSLTELADPNARLNFNGRWHHGREMVTKWMSEMRLHDFKLHELDVQGDKVHIRGEIFFEIDGRVIRSEIHIVMIKINGRWLLHSMHVE | 1.17
DESRKAMRIALEIIEHMWRTGDETLRHELADPNTRVRIGDKELHGREELIRLWKELGFKHIEEIDLESIFVQGDKIHIDTRVHGEINGRHEVMRVVLIIHKIDGKWLIHSESHR | 1.49
DESRREVRHFIDLWIELVETGDEDTIRHLADPHVKIVIGEKEDWGMEVFFRDFRRLGVDHMEIIVHRVDVIGNKAHVDFELRVHVDGQEFRFRLRLIVHKINGRWILRTIEIH | 1.68
DESTEHLHRFFDLLIEWIRTGDEESLNKNADPNTRVEAENHEEHGREKFSKHLSEIMTHMRSHFVLRHVSFVGDKAIFDVEVIIIVNGREIKVRTFIIVVKINGRWLLKSVHIE | 1.6
DESTENLREFIRVLLHLWETGNEDEFLRMADPNALVYDEHEYDHGWKAWKKLLEQYDVVTSIIPRHIRLIGDKVDIHTNLYMLINGRTVEVHTELLVKKIDGQWRIKFFLIR | 1.63
DESTEVLERIMKDFLDELRTGDWEKFMELADPNVRLHFNGVTNHGREEVTRYFREHLARFDHYEIENHRVTLVGDKLHLDVILRVHQGDKFREYKVEIRVVVYDGKIKEVHIIIR | 2.44
DESTHNRKIAVEILEHDNKTGDEKSIFRLFDPHVKIEVDGRDYHGREFFEEFIRKLGWTNIELTIKDVRSIGEFAEMRMEVRYGDWHFHTKVDVKKYNGQWLNREVRIA | 1.44
DESTKAAEDIFEIIREMLETGDEETTRRLFDPDAKIIIGDKEIHGRENIELFMRLWLKQFDHVHDMTIRRMEIQGDKVIMDTEIHGTINGQRRTIRTRWIVVKINGKWSIHEVYFT | 2.02
DESTKEARKFKHEFDNDWKTGDEDSLLRLADPHVRTDVNGVENHGREDFVKLLMDIFREMRTEMRTRHVTVFNGRIEVHSTLHLHQGDKVIDLEVLIINRKVNGRWILESMEIK | 0.603
DESTKNAQEVIKMIKEIVETGDWRRHHQLVDPNARLHVHINGKDEESHGREEFTRVLMELWKEFGAKHVRFEDFELQGEKIHFHVKINVDGKDVKLLIVALKINGRWLMESVYVEFH | 1.19
DESTRDFRQFFKLLVEHFKTGDWRRLADLFDPNVRVEINGRELHGRENIALWLRDRFKHLGVDHVHMRIRDLEVQGDKIRIHVELEIRVGDKVFYHETVLVIEKFDGRWIVHEEEYK | 1.49
DESTRDVKEMVEWFLRTLHTGDEHLLEHLLDPDVRVLIDGREHHGRETMREIWKEHIDKIKGAVIEIKRIEVRIQGNKAHLHVDTVLHYNGRNLDTHIEIIITKINGQWRVREVEIRVR | 2.21
DESTSQARKAIEQLIHVEETGDEEMFSTLVDPHVRMDYNGVELHGMEKARNHWNELWKRFKGIKIELKRLEIQGNKVRVQMTYIVGDKNKYVEIHITKIDGQWVITEIHVD | 1.12
DETASRAAERYMKALQTGDPDEVVKQIDPNVHVRVGDKEVQGKEQFRKKQERDKKQARYHIKHVTFNVEGDKVRVDVIFRKHHNGQPRHDRMEQRMSVRGDKITHQENHKTG | 0.172
DETDEHAHKMFEIIIHYLLTGDWKELIKLADPHVKLEFDINGKTIDLVGRELFTEFFLRFKNVRSEIDDVRHIGDKNHARVRVNWDGRDTEVQIDIVIIDGVVHRVRLIFK | 2.59
DETDEWAHKLMELILEYWLTGDWDLFNELADPNVKLIINGRESVGREEVREMLERTLKEIRLRRIEIDHVRIYDGRAQTHSRTDGDVNGKVTETHMHLHVLLINGRIRHVEIRLH | 2.02
DETDEYARNMMEIFVHLLATGNEEKMLEYMDPNTRHNFNGVVLHGRDVLREWWHRWLKEIRITRTRIDHVHTQGEYVHANTTVEGTIDGRKFELETRVHLHVVNGRIKESSIKLN | 1.51
DETDKLAFELMEELLENFHTGNEERFHQLFDPDVRIIVNGRTLHGRRHWHKILEDIIREWRIKHIHMERLISIGDKARLDMRWNVRVNGREVHTESHVNLTVVDGRITLLEIQHH | 1.52
DETEDEMHKVLKLWIEAYRTGDEELLEELFDPHVRLDINGKDFHGREAFTRQVRHEMKHLRYEDFHIDTVEVQGEKAFVHGRIVGKFDGRRRHMHSHLIILKINGRWHVESLHFK | 1.26
DETEDTIHEAVKEFVTALMTGDEELLQKLMDPRTRLDYNGREIHGREEVIRLLLEMRIHHVEIKRIEIQGNKVHVDVKVDGEFNGQRRETKTIINATKINGRWVVQELVIR | 2.26
DETEDTSRHLLELFAHALRTGDEESSDRLLDPHVRIDINGKELIGRERFRELWEEMRIEWVKIRDVSIINGQVHVNGEMLMVYDGRTYTIETRIIILKVDGRWVIEHMKIG | 1.43
DETEEAVLSVARLWLHLFLTGDEERTQKMMDPNARVEIDGKEVVGREKVTDMIRHKIEQIRIQDHKEKDIKVIGDKVHLHVQFHGEVDGKEINTLILINVMVVDGRIKHVEIRVS | 0.77

Source: the NTF2 design screens of Basanta et al. (2020)
